This is an account of results in patent publication US20070254831A1 (published 2007).

For experiment [1], the target named is T1, soluble human FcRn (human, UniProt P55899 24-297; P61769 21-119, biotinylated (Sulfo-NHS-LC-Biotin) in the ELISA; amine-coupled to CM5 chip in SPR).
T1 construct: also called shFcRn; biotinylated shFcRn
Description: SPR, pH 6.
Description: (§1) The following steps were performed to cross-link soluble human or cynomolgus FcRn to the dextran surface of a CM5 sensor chip (Biacore AB, Uppsala, Sweden) by an amine coupling reaction involving 1-ethyl-(3-dimethylaminopropyl)-carbodiimide hydrochloride (EDC) (Biacore AB, Uppsala, Sweden) and N-hydroxysuccinimide (NHS) (Biacore AB, Uppsala, Sweden) as recommended by Biacore (BIAapplications Handbook, version AB, section 4.2, Biacore AB, Uppsala, Sweden). […] Residual sites on the FcRn flow cell were blocked with 1 M ethanolamine hydrochloride pH 8.5 (Biacore AB, Uppsala, Sweden). A control flow cell was blocked with ethanolamine for reference subtraction. For analysis of the monomeric peptides, FcRn was coated to a final density of 4000-5000 response units (RU). For analysis of the peptide dimers, FcRn was coated to a density of 2000-2500 RU. All SPR measurements were performed using a BIACORE 3000 Instrument (Biacore AB Uppsala, Sweden). For measurements done at either pH 6 or pH 7.4, experiments were performed in 50 mM phosphate, 100 mM sodium chloride, 0.01% surfactant P20 (Biacore AB, Uppsala, Sweden).
(§2) Ten, 2-fold dilutions of the peptide were injected over the FcRn-CM5 chip at a rate of 20 μl/min for 2 min. The peptide was dissociated from the chip for 2.5 minutes with buffer. Any remaining peptide was removed from the chip with a 30 second injection of HBS-P buffer (Biacore AB, Uppsala, Sweden) at a rate of 30 μl/min. Sensorgrams were generated and analyzed using BiaEval software version 3.1 (Biacore AB, Uppsala, Sweden). The equilibrium RU observed for each injection was plotted against concentration. The equilibrium KD values were derived by analysis of the plots using the steady state affinity model included in the BiaEval software.

The target of experiment [2] is T1, soluble human FcRn. Description: SPR, pH 6. This is another data set of the same source. A general note: In SPR one partner is held on a chip, and binding of the other changes the refractive index at the surface.
Description: as §1, §2
Experiment [3] concerns the target T1, soluble human FcRn. Description: SPR, pH 7.4.
Description: as §1
(§3) Ten, 2-fold dilutions of the peptide were injected over the FcRn-CM5 chip at a rate of 20 μl/min for 2 min. The peptide was dissociated from the chip for 2.5 minutes with buffer. […] Sensorgrams were generated and analyzed using BiaEval software version 3.1 (Biacore AB, Uppsala, Sweden). […]
Experiment [4] addresses T1, soluble human FcRn. The experiment can be described thus: SPR, pH 7.4. The source holds these as a separate data set.
Description: as §1, §2
Experiment [5] addresses T1, soluble human FcRn. The experiment can be described thus: SPR, pH 6. This is another data set of the same source.
Description: as §1, §2
Experiment [6] concerns the target T1, soluble human FcRn. The experiment can be described thus: SPR, pH 6. The source holds these as a separate data set.
Description: as §1, §2
Experiment [7] addresses T1, soluble human FcRn. Description: SPR, pH 7.4. This is another data set of the same source.
Description: as §1, §3
Experiment [8] addresses T1, soluble human FcRn. Description: SPR, pH 7.4. The source holds these as a separate data set.
Description: as §1, §2
The target in experiment [9] is T1, soluble human FcRn. The experiment can be described thus: SPR, pH 6. The source holds these as a separate data set.
Description: as §1, §3
Experiment [10] deals with T1, soluble human FcRn. The experiment can be described thus: SPR, pH 6. The source holds these as a separate data set.
Description: as §1, §2
Experiment [11] concerns the target T1, soluble human FcRn. The experiment can be described thus: SPR, pH 6. This is another data set of the same source.
Description: as §1, §2
The target in experiment [12] is T1, soluble human FcRn. Description: SPR, pH 7.4. This is another data set of the same source.
Description: as §1, §2
Experiment [13] addresses T1, soluble human FcRn. The experiment can be described thus: SPR, pH 7.4. This is another data set of the same source.
Description: as §1, §2
Experiment [14] concerns the target T1, soluble human FcRn. Description: SPR, pH 7.4. This is another data set of the same source.
Description: as §1, §2
The target in experiment [15] is T1, soluble human FcRn. The experiment can be described thus: SPR, pH 6. The source holds these as a separate data set.
Description: as §1, §2
The target in experiment [16] is T1, soluble human FcRn. Description: SPR, pH 7.4. This is another data set of the same source.
Description: as §1, §3

Bridge positions count the residues as written; N and C are the ends. Ends that are not written are not given here.

T1 sequence (P55899 24-297 limits assumed, chain 1 of 2): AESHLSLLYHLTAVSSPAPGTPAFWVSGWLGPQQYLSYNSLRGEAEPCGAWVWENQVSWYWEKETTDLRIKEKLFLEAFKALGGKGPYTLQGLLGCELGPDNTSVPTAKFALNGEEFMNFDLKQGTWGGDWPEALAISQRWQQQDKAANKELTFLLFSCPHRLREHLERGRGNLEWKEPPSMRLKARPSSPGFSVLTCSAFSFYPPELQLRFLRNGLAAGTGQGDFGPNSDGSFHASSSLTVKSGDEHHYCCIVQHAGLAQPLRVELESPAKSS
T1 sequence (P61769 21-119 limits assumed, chain 2 of 2): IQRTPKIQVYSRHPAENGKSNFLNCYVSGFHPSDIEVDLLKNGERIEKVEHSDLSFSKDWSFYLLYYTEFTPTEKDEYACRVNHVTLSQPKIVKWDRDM

The Kd is the free concentration of one partner at which half of the binding sites on the other are occupied at equilibrium, for simple one-to-one binding. Consider QRFCTGHFGGLYPCNGP-NH2 (disulfide 4-14 (inferred)) [SEQ ID NO:1], for which the Kd with soluble human FcRn [1] amounted to 5.1 µM; with soluble human FcRn [2], 5.1 µM; with soluble human FcRn [3] it was 30 µM; in the experiment with soluble human FcRn [4], 30 µM; with soluble human FcRn [5], 5.1 µM; with soluble human FcRn [6], 5.1 µM. The Kd stood at 30 µM with soluble human FcRn [7]; 30 µM with soluble human FcRn [8]; 5.1 µM with soluble human FcRn [9]; 5.1 µM with soluble human FcRn [10]; 5.1 µM in the experiment with soluble human FcRn [11]; 30 µM with soluble human FcRn [12]. Also, the Kd in the experiment with soluble human FcRn [13] was determined as 30 µM; with soluble human FcRn [14] it was 30 µM; with soluble human FcRn [15], 5.1 µM; with soluble human FcRn [16], 30 µM.
